Experimental data taken from patent US20200190192A1.

Target: cynomolgus PD-1 expressed on CHO cells (cynomolgus monkey)
Assay: cPD-1 binding titration (format not named; taken as cell binding)

B1: 1353-G10 H1 HC IgG (antibody, V domains shown)
VH: EVQLVQSGAEVKKPGASVKVSCKASGYTFDSYGISWVRQAPGQGLEWMGWISAYNGNTNYAQKLQGRVTMTTDTSTNTAYMELRSLRSDDTAVYYCARDVDYGTGSGYWGQGTLVTVSS
VL: SYELTQPPSVSVSPGQTARITCSGDALPKQYAYWYQQKPGQAPVMVIYKDTERPSGIPERFSGSSSGTKVTLTISGVQAEDEADYYCQSADNSITYRVFGGGTKVTVL
Bmax: 2960 | Kd: 0.3 nM

B2: 1353-G10 H1/vk1-39 IgG (antibody, V domains shown)
VH: B1 VH
VL: DIQLTQSPSSLSASVGDRVTITCSGDALPKQYAYWYQQKPGKAPKLLIYKDTERPSGVPSRFSGSSSGTKVTLTISSLQPEDFATYYCQSADNSITYRVFGGGTKVEIK
Bmax: 2800 | Kd: 2.3 nM
